Changes are numbered by the printed parent chain. One block for each binder: values may come before it.
Columns and labels:
human TL1A = biological target: T1, human TL1A (human, UniProt O95150 72-251, limits assumed); assay: ELISA titration on plate-coated human TL1A, unpurified culture supernatant
T1 construct: also called tumor necrosis factor-like cytokine 1A; TNFSF15
T1 sequence (looked up): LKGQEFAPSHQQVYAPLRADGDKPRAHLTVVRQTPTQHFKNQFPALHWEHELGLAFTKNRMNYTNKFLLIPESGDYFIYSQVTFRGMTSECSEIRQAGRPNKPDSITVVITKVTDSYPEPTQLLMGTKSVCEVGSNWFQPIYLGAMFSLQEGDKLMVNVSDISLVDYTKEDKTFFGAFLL

[1] = biological target: T2, human TL1A (Fitzgerald #30R-AT070) (human, UniProt O95150 72-251, limits assumed); assay: ELISA titration, coated human TL1A, culture supernatant
T2 construct: Coated on the ELISA plate at 1 ug/mL; also called TNFSF15
T2 sequence (looked up): T1 sequence (looked up)

B1: A221 (antibody, IgG1, V domains shown)
VH: QVQLVQSGAEVKKPGASVKVSCKASGFDIQDTYMHWVKQRPGQGLEWMGRIDPASGHTKYDPKFQVRATITRDTSTSTAYLELSSLRSEDTAVYYCARSGGLPDVWGQGTTVTVSS
VL: EIVLTQSPGTLSLSPGERATLSCRASSSVSYMYWYQQKPGQAPRPLIYATSNLASGIPDRFSGSGSGTDFTLTISRLEPEDFAVYYCQQWEGNPRTFGGGTKLEIK
Kd (human TL1A): 0.051 nM

B2: A45 (antibody, human IgG1, V domains shown)
VH: B1 VH with M48I, A68V
VL: B1 VL with L13A, L21M, L46W, I57V, F70Y, L77V, E91S
notes: human IgG1/kappa (pFuse vectors), culture supernatant
Kd [1]: 0.085 nM

B3: A52 (antibody, human IgG1, V domains shown)
VH: B1 VH with M48I, R72T
VL: B1 VL with L13A, L21M, L46W, I57V, E91S
notes: as for B2
Kd [1]: 0.027 nM

B4: A56 (antibody, human IgG1, V domains shown)
VH: B1 VH with M48I, R72T
VL: B1 VL with L13A, L21M, L46W, F70Y, L77V, E91S
notes: as for B2
Kd [1]: 0.116 nM

B5: A50 (antibody, human IgG1, V domains shown)
VH: B1 VH with M48I, R72T
VL: B1 VL with L13A, L21M, L46W, I57V, L77V, E91S
notes: as for B2
Kd [1]: 0.019 nM

B6: A49 (antibody, human IgG1, V domains shown)
VH: B1 VH with M48I, R72T
VL: B1 VL with L13A, L21M, P45L, I57V, F70Y, L77V, E91S
notes: as for B2
Kd [1]: 0.092 nM

B7: A55 (antibody, human IgG1, V domains shown)
VH: B1 VH with Q1E, M48I, R72T
VL: B1 VL with L13A, L21M, L46W, I57V, F70Y, L77V, E91S
notes: as for B2
Kd [1]: 0.091 nM

B8: A53 (antibody, human IgG1, V domains shown)
VH: B1 VH with M48I, A68V, I70M, R72T
VL: B1 VL with L13A, L21M, L46W, I57V, F70Y, L77V, E91S
notes: as for B2
Kd [1]: 0.126 nM

B9: A51 (antibody, human IgG1, V domains shown)
VH: B1 VH with M48I, R72T
VL: B1 VL with L13A, L21M, L46W, I57V, F70Y, E91S
notes: as for B2
Kd [1]: < 0.05 nM

B10: A54 (antibody, human IgG1, V domains shown)
VH: B1 VH with Q1D, M48I, R72T
VL: B1 VL with L13A, L21M, L46W, I57V, F70Y, L77V, E91S
notes: as for B2
Kd [1]: 0.083 nM

B11: A48 (antibody, human IgG1, V domains shown)
VH: B1 VH with M48I, R72T
VL: B1 VL with L13A, L46W, I57V, F70Y, L77V, E91S
notes: as for B2
Kd [1]: 0.076 nM

B12: A46 (antibody, human IgG1, V domains shown)
VH: B1 VH with M48I, I70M
VL: B1 VL with L13A, L21M, L46W, I57V, F70Y, L77V, E91S
notes: as for B2
Kd [1]: 0.063 nM

B13: A47 (antibody, human IgG1, V domains shown)
VH: B1 VH with M48I, A68V, I70M
VL: B1 VL with L13A, L21M, L46W, I57V, F70Y, L77V, E91S
notes: as for B2
Kd [1]: 0.082 nM

B19: A156 (antibody, IgG1, V domains shown)
VH: B1 VH with K38R, R40A, D52E, T58I, I70M, A79V, L81M, V105W
VL: B1 VL with L46W
Kd (human TL1A): 0.094 nM

Now from value to binder:

Kd (human TL1A): 0.05 nM
B14: A171 (antibody, IgG1, V domains shown)
VH: B1 VH with K38R, R40A, T58I, V66G, R72T, A79V, L81M, V105W
VL: B1 VL with L46W

Kd (human TL1A): 0.047 nM
B15: A169 (antibody, IgG1, V domains shown)
VH: B1 VH with R40A, T58I, V66G, A68V, I70M, A79V, L81M, V105W
VL: B1 VL with L46W

Kd (human TL1A): 0.072 nM
B16: A161 (antibody, IgG1, V domains shown)
VH: B1 VH with K38R, A68V, R72T, A79V
VL: B1 VL with P45L, E91K

Kd (human TL1A): 0.069 nM
B17: A157 (antibody, IgG1, V domains shown)
VH: B1 VH with A68V, A79V
VL: B1 VL with P45L, E91K

Kd (human TL1A): 0.069 nM
B18: A159 (antibody, IgG1, V domains shown)
VH: B1 VH with A68V, L81M
VL: B1 VL with P45L, E91K

Kd (human TL1A): 0.057 nM
B20: A166 (antibody, IgG1, V domains shown)
VH: B1 VH with M48I, A68V, I70M, R72T
VL: B1 VL with L46W

Kd (human TL1A): 0.058 nM
B21: A164 (antibody, IgG1, V domains shown)
VH: B1 VH with K38R, A68V, I70M, R72T
VL: B1 VL with P45L, E91K

Kd (human TL1A): 0.062 nM
B22: A168 (antibody, IgG1, V domains shown)
VH: B1 VH with M48I, I70M
VL: B1 VL with L46W

Kd (human TL1A): 0.049 nM
B23: A170 (antibody, IgG1, V domains shown)
VH: B1 VH with K38R, R40A, T58I, V66G, A68V, I70M, L81M, V105W
VL: B1 VL with L46W

Kd (human TL1A): 0.045 nM
B24: A175 (antibody, IgG1, V domains shown)
VH: B1 VH with R40A, T58I, V66G, A68V, I70M, A79V, L81M, V105W
VL: B1 VL

Kd (human TL1A): 0.043 nM
B25: A174 (antibody, IgG1, V domains shown)
VH: B1 VH with K38R, R40A, D52E, T58I, V66G, I70M, L81M, V105W
VL: B1 VL with L46W

Kd (human TL1A): 0.048 nM
B26: A176 (antibody, IgG1, V domains shown)
VH: B1 VH with K38R, R40A, T58I, V66G, A68V, I70M, L81M, V105W
VL: B1 VL

Kd (human TL1A): 0.052 nM
B27: A177 (antibody, IgG1, V domains shown)
VH: B1 VH with K38R, R40A, T58I, V66G, R72T, A79V, L81M, V105W
VL: B1 VL

Kd (human TL1A): 0.051 nM
B28: A163 (antibody, IgG1, V domains shown)
VH: B1 VH with K38R, A68V, R72T, L81M
VL: B1 VL with P45L, E91K

Kd (human TL1A): 0.094 nM
B29: A160 (antibody, IgG1, V domains shown)
VH: B1 VH with A68V, I70M
VL: B1 VL with P45L, E91K

Kd (human TL1A): 0.04 nM
B30: A172 (antibody, IgG1, V domains shown)
VH: B1 VH with K38R, R40A, T58I, V66G, I70M, A79V, L81M, V105W
VL: B1 VL with L46W

Kd (human TL1A): 0.075 nM
B31: A162 (antibody, IgG1, V domains shown)
VH: B1 VH with K38R, A68V, R72T, A79V, L81M
VL: B1 VL with P45L, E91K

Kd (human TL1A): 0.042 nM
B32: A167 (antibody, IgG1, V domains shown)
VH: B1 VH with M48I, A68V
VL: B1 VL with L46W

Kd (human TL1A): 0.066 nM
B33: A158 (antibody, IgG1, V domains shown)
VH: B1 VH with A68V, A79V, L81M
VL: B1 VL with P45L, E91K

Kd (human TL1A): 0.04 nM
B34: A173 (antibody, IgG1, V domains shown)
VH: B1 VH with R40A, D52E, T58I, V66G, I70M, A79V, L81M, V105W
VL: B1 VL with L46W

Kd (human TL1A): 0.059 nM
B35: A165 (antibody, IgG1, V domains shown)
VH: B1 VH with K38R, R40A, M48I, R72T
VL: B1 VL with L46W

Source: patent US20260216326A1 (PROMETHEUS BIOSCIENCES, published 2026)
